Source: paper PMC11009412, “Pathogenic mutations of human phosphorylation sites affect protein–protein interactions” (Nature Communications, 2024)

B1: C11orf58;SMAP (protein, UniProt O00193 1-183, looked up)
Small acidic protein: MSAARESHPHGVKRSASPDDDLGSSNWEAADLGNEERKQKFLRLMGAGKKEHTGRLVIGDHKSTSHFRTGEEDKKINEELESQYQQSMDSKLSGRYRRHCGLGFSEVEDHDGEGDVAGDDDDDDDDSPDPESPDDSESDSESEKEESAEELQAAEHPDEVEDPKNKKDAKSNYKMMFVKSSGS
B2: HN1L (protein, UniProt Q9H910 1-190, looked up)
Jupiter microtubule …: MFQVPDSEGGRAGSRAMKPPGGESSNLFGSPEEATPSSRPNRMASNIFGPTEEPQNIPKRTNPPGGKGSGIFDESTPVQTRQHLNPPGGKTSDIFGSPVTATSRLAHPNKPKDHVFLCEGEEPKSDLKAARSIPAGAEPGEKGSARKAGPAKEQEPMPTVDSHEPRLGPRPRSHNKVLNPPGGKSSISFY
B3: ACIN1 (protein, UniProt Q9UKV3 1-1341, looked up)
Apoptotic chromatin …: MWRRKHPRTSGGTRGVLSGNRGVEYGSGRGHLGTFEGRWRKLPKMPEAVGTDPSTSRKMAELEEVTLDGKPLQALRVTDLKAALEQRGLAKSGQKSALVKRLKGALMLENLQKHSTPHAAFQPNSQIGEEMSQNSFIKQYLEKQQELLRQRLEREAREAAELEEASAESEDEMIHPEGVASLLPPDFQSSLERPELELSRHSPRKSSSISEEKGDSDDEKPRKGERRSSRVRQARAAKLSEGSQPAEEEEDQETPSRNLRVRADRNLKTEEEEEEEEEEEEDDEEEEGDDEGQKSREAPILKEFKEEGEEIPRVKPEEMMDERPKTRSQEQEVLERGGRFTRSQEEARKSHLARQQQEKEMKTTSPLEEEEREIKSSQGLKEKSKSPSPPRLTEDRKKASLVALPEQTASEEETPPPLLTKEASSPPPHPQLHSEEEIEPMEGPAPAVLIQLSPPNTDADTRELLVSQHTVQLVGGLSPLSSPSDTKAESPAEKVPEESVLPLVQKSTLADYSAQKDLEPESDRSAQPLPLKIEELALAKGITEECLKQPSLEQKEGRRASHTLLPSHRLKQSADSSSSRSSSSSSSSSRSRSRSPDSSGSRSHSPLRSKQRDVAQARTHANPRGRPKMGSRSTSESRSRSRSRSRSASSNSRKSLSPGVSRDSSTSYTETKDPSSGQEVATPPVPQLQVCEPKERTSTSSSSVQARRLSQPESAEKHVTQRLQPERGSPKKCEAEEAEPPAATQPQTSETQTSHLPESERIHHTVEEKEEVTMDTSENRPENDVPEPPMPIADQVSNDDRPEGSVEDEEKKESSLPKSFKRKISVVSATKGVPAGNSDTEGGQPGRKRRWGASTATTQKKPSISITTESLKSLIPDIKPLAGQEAVVDLHADDSRISEDETERNGDDGTHDKGLKICRTVTQVVPAEGQENGQREEEEEEKEPEAEPPVPPQVSVEVALPPPAEHEVKKVTLGDTLTRRSISQQKSGVSITIDDPVRTAQVPSPPRGKISNIVHISNLVRPFTLGQLKELLGRTGTLVEEAFWIDKIKSHCFVTYSTVEEAVATRTALHGVKWPQSNPKFLCADYAEQDELDYHRGLLVDRPSETKTEEQGIPRPLHPPPPPPVQPPQHPRAEQREQERAVREQWAEREREMERRERTRSEREWDRDKVREGPRSRSRSRDRRRKERAKSKEKKSEKKEKAQEEPPAKLLDDLFRKTKAAPCIYWLPLTDSQIVQKEAERAERAKEREKRRKEQEEEEQKEREKEAERERNRQLEREKRREHSRERDRERERERERDRGDRDRDRERDRERGRERDRRDTKRHSRSRSRSTPVRDRGGRR
B4: RANBP3 (protein, UniProt Q9H6Z4 2-567, looked up)
Ran-binding protein 3: ADLANEEKPAIAPPVFVFQKDKGQKSPAEQKNLSDSGEEPRGEAEAPHHGTGHPESAGEHALEPPAPAGASASTPPPPAPEAQLPPFPRELAGRSAGGSSPEGGEDSDREDGNYCPPVKRERTSSLTQFPPSQSEERSSGFRLKPPTLIHGQAPSAGLPSQKPKEQQRSVLRPAVLQAPQPKALSQTVPSSGTNGVSLPADCTGAVPAASPDTAAWRSPSEAADEVCALEEKEPQKNESSNASEEEACEKKDPATQQAFVFGQNLRDRVKLINESVDEADMENAGHPSADTPTATNYFLQYISSSLENSTNSADASSNKFVFGQNMSERVLSPPKLNEVSSDANRENAAAESGSESSSQEATPEKESLAESAAAYTKATARKCLLEKVEVITGEEAESNVLQMQCKLFVFDKTSQSWVERGRGLLRLNDMASTDDGTLQSRLVMRTQGSLRLILNTKLWAQMQIDKASEKSIRITAMDTEDQGVKVFLISASSKDTGQLYAALHHRILALRSRVEQEQEAKMPAPEPGAAPSNEEDDSDDDDVLAPSGATAAGAGDEGDGQTTGST
B5: SAP30BP (protein, UniProt Q9UHR5 1-308, looked up)
SAP30-binding protein: MAGKKNVLSSLAVYAEDSEPESDGEAGIEAVGSAAEEKGGLVSDAYGEDDFSRLGGDEDGYEEEEDENSRQSEDDDSETEKPEADDPKDNTEAEKRDPQELVASFSERVRNMSPDEIKIPPEPPGRCSNHLQDKIQKLYERKIKEGMDMNYIIQRKKEFRNPSIYEKLIQFCAIDELGTNYPKDMFDPHGWSEDSYYEALAKAQKIEMDKLEKAKKERTKIEFVTGTKKGTTTNATSTTTTTASTAVADAQKRKSKWDSAIPVTTIAQPTILTTTATLPAVVTVTTSASGSKTTVISAVGTIVKKAKQ

Tested on: BirA*-FLAG-GATAD1 variants in Flp-In-293 cells
Test: BioID proximity labelling of full-length GATAD1 variants (SILAC)
Type: cell-based, human
Settings: GATAD1 WT vs S102P, significant proteins only; for Log2_Ratio.H.L.normalized.WT_S102P_forward: forward experiment (label swap performed, sign inverted against the H/L ratio); for Log2_Ratio.H.L.normalized.WT_S102P_forward / Log2_Ratio.H.L.normalized.WT_S102P_reverse: log2 of normalized H/L ratio; for Ratio.H.L.normalized.WT_S102P_forward: forward experiment; for Log2_Ratio.H.L.normalized.WT_S102P_reverse / Ratio.H.L.normalized.WT_S102P_reverse: reverse experiment
Method in brief: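 Tetracycline-inducible Flp-In-293 T-REx lines expressing N-terminal BirA*-FLAG GATAD1 variants (WT, S102P, S102D, S102A) were SILAC-labelled, induced with 1 μg/mL tetracycline for 24 h and given 50 μM biotin overnight. Streptavidin-enriched proteins were trypsin-digested on-bead and analysed by LC-MS/MS. Label-swapped log2 SILAC ratios beyond ±1 defined differential proteins (n = 2).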

Molecule | Log2_Ratio.H.L.normalized.WT_S102P_forward | Ratio.H.L.normalized.WT_S102P_forward | Log2_Ratio.H.L.normalized.WT_S102P_reverse | Ratio.H.L.normalized.WT_S102P_reverse
B1 | 1.333 | 0.3971 | 1.1961 | 2.2912
B2 | 1.324 | 0.3994 | 1.259 | 2.3935
B3 | 1.249 | 0.4208 | 1.096 | 2.1371
B4 | 1.029 | 0.49 | 1.139 | 2.2024
B5 | 1.673 | 0.3135 | 1.201 | 2.2985
